One substance from US20060029947A1 can be followed below.

This assay addresses Bacillus anthracis protective antigen (PA) (Bacillus anthracis) (UniProt P13423).

Sequence of Bacillus anthracis protective antigen (PA) (Bacillus anthracis) (P13423 30-764 limits assumed): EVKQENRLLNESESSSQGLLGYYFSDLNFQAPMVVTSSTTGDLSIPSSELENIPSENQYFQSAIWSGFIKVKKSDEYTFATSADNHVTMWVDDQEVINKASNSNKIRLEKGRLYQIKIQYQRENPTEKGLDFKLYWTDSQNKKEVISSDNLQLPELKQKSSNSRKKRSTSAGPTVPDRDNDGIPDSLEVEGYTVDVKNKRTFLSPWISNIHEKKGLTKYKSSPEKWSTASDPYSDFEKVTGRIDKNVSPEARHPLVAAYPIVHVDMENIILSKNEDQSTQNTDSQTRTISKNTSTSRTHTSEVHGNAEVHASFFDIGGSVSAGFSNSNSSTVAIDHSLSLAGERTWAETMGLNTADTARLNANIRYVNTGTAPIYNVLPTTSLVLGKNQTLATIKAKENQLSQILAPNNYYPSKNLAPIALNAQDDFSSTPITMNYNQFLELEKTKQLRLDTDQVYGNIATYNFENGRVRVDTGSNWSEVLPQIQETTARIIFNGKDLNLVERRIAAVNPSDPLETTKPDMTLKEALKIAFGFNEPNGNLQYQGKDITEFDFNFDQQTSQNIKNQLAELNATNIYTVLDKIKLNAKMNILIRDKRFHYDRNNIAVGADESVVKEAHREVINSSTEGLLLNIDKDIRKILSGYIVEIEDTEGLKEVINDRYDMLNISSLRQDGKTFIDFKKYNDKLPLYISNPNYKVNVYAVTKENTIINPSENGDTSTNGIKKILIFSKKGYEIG
Sequence of 26-10 scFv-g3p fusion (pAK200) (P69168 268-424): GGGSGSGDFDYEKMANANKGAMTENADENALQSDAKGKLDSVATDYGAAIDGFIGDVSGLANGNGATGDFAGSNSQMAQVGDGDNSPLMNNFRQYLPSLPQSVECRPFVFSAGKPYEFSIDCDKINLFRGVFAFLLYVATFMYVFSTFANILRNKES

Turning to “26-10 scFv-g3p fusion (pAK200) (from UniProt P69168 268-424)”, the M (mean fluorescence) turned out to be 7.25.
